Consider three sequences from the supplement of paper PMC6379048.

Common to all, as to test: EC50 of free RNA motif oligo competing protein binding to immobilised probe
The target of one series is PHAX (UniProt Q9H814). In a few lines: (§1)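 Kd was calculated as EC50, taken from a four-parameter log-logistic fit, multiplied by a protein-dependent depletion factor. The assay used HEK293-FT lysate (2.5 mg protein/well) pre-incubated for 1 h at 4°C with free RNA oligos (0 nM to 30 μM), then incubated for 30 min at 4°C with the matching oligos bound through a 5′-amino-C6 linker to NHS-Sepharose beads. Bound proteins were measured by label-free LC-MS/MS and normalised to the control.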
PHAX, sequence (Q9H814 whole entry): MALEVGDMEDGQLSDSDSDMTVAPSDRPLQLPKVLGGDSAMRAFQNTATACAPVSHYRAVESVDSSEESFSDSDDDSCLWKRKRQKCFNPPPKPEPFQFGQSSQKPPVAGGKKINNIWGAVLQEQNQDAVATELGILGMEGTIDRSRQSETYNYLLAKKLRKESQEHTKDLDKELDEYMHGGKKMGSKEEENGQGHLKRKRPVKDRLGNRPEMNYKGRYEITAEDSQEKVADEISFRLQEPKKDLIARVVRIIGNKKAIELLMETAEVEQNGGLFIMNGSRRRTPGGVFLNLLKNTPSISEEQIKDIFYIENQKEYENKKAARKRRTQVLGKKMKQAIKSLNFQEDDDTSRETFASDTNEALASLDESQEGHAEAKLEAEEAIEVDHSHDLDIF

For a further series, the target named is ZC3HAV1 (UniProt Q7Z2W4). In a few lines:
as §1

The next series has as its target T1, DIS3L2 (UniProt Q8IYB7).
T1 sequence: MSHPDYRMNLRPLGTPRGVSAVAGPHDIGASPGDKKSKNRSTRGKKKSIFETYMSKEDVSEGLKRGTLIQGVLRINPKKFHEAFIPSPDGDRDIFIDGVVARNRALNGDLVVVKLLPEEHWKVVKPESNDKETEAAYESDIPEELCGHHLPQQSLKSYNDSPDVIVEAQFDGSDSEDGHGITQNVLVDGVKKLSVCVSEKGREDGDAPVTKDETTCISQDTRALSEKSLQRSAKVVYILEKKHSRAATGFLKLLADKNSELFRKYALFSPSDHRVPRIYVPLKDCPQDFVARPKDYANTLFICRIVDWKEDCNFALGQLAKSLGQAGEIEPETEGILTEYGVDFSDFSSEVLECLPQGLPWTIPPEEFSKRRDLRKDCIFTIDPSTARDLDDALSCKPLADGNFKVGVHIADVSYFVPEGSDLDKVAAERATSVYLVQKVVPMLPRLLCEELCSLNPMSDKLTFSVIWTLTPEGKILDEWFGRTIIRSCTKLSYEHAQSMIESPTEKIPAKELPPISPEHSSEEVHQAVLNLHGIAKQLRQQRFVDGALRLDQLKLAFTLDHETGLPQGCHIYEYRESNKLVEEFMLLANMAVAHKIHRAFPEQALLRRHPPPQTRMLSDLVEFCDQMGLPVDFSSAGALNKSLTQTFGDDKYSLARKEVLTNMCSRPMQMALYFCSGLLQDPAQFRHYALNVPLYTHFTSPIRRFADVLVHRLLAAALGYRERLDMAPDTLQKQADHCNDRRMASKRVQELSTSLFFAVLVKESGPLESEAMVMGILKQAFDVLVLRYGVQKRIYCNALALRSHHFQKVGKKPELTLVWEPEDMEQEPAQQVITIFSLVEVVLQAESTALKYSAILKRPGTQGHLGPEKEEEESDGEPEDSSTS
In a few lines:
as §1

In the next series the target is T2, HNRNPUL1 (UniProt Q9BUJ2).
T2 sequence: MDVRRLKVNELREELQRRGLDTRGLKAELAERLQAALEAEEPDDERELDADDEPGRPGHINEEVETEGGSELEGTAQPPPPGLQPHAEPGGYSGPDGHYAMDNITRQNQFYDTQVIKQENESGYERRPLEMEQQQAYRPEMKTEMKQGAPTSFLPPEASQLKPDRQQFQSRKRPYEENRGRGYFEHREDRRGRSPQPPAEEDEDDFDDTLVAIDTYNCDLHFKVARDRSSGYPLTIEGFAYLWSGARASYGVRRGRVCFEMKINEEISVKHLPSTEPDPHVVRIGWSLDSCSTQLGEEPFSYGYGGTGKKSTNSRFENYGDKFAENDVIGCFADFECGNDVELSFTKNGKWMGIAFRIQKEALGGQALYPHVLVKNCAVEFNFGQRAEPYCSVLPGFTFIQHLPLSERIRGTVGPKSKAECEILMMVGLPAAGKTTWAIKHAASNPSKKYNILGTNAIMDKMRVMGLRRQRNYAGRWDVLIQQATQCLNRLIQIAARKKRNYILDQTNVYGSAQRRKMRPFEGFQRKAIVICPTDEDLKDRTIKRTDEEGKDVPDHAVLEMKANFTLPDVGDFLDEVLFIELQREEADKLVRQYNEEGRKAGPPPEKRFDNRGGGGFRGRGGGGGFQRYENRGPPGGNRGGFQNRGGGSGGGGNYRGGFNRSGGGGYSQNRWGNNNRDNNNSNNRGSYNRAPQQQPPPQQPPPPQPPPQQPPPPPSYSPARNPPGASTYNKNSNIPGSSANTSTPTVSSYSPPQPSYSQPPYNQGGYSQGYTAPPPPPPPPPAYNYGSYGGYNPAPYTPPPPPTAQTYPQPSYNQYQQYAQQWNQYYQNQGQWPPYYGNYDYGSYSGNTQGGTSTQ
In a few lines: as §1

The target of a further series is T3, CELF1 (UniProt Q92879).
T3 sequence: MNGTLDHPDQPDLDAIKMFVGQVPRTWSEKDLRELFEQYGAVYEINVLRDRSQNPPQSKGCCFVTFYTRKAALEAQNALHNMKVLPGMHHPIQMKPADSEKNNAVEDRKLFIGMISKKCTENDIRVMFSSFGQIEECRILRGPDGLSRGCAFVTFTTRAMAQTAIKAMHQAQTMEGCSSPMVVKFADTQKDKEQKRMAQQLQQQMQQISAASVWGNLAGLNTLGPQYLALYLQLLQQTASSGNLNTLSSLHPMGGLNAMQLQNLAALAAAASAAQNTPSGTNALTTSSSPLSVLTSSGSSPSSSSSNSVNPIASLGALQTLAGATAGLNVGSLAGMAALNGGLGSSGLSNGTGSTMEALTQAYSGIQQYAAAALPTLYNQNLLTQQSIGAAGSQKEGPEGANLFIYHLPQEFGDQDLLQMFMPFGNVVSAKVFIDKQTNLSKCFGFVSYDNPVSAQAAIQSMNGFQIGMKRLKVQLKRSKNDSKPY
In a few lines:
as §1

ZC3HAV1, sequence (Q7Z2W4 whole entry): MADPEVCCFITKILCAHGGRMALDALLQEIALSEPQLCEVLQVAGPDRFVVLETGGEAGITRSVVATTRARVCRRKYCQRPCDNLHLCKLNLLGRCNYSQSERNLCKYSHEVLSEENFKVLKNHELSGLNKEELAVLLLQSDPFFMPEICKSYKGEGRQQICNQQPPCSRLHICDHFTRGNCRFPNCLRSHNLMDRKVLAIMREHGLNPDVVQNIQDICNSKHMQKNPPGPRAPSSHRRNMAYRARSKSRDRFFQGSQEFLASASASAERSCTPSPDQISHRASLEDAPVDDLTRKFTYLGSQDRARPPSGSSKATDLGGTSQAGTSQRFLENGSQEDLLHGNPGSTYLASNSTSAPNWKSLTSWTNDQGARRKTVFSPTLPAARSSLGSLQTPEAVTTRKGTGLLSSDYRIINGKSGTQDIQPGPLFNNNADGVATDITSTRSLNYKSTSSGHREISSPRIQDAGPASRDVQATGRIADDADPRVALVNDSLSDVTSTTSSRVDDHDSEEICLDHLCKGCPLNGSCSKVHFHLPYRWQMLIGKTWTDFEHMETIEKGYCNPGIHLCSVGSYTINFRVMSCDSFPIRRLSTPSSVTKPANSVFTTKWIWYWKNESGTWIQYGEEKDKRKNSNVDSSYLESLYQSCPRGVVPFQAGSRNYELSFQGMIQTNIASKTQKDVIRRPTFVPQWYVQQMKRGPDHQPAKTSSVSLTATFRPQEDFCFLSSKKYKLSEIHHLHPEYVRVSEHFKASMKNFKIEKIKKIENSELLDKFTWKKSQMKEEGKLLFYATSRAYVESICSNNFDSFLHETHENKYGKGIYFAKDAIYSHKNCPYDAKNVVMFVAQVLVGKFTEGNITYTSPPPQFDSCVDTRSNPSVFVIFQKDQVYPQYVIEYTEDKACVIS

Take AAUAAA: the EC50 in the series with PHAX is 10700 nM; with ZC3HAV1, 3900 nM; in the series with DIS3L2, 1340 nM; in the series with HNRNPUL1, 1410 nM; with CELF1 it was 667 nM.

Take CUGUCCU: the EC50 in the series with PHAX is 1350 nM; with ZC3HAV1 it was 1320 nM; with DIS3L2 it was 1180 nM; with HNRNPUL1, 152 nM; with CELF1, 6720 nM.

Take UAUUUAU: the EC50 with PHAX is 9100 nM; with ZC3HAV1, 5380 nM; with DIS3L2, 376 nM; with HNRNPUL1, 643 nM; in the series with CELF1 it was 555 nM.
